{"source": "patent US20210290676A1", "about": "“IMPROVING THE EFFICACY AND SAFETY OF ADOPTIVE CELLULAR THERAPIES” (University of Southern California, priority 2018, published 2021)", "test": "Leukapheresis with and without mobilization and manufacturing of CAR-T/TCR-T cells from cancer patients", "format": "in vivo, human", "conditions": "mobilization prior to leukapheresis", "method": "A study is conducted to compare the generation of cell therapy products from cancer patients who have received 2 or more cycles of prior chemotherapy. Patients with different types of different cancers (e.g., diffuse large B cell lymphoma, acute B-ALL, CLL, multiple myeloma, breast cancer, ovarian cancer, lung cancer etc.) are eligible. Leukapheresis products are collected from the subjects with and without mobilization with Perixafor (0.24 mg/kg subcutaneously daily on days 1-3). T cells are isolated and used for manufacturing of CAR-T and TCR-T cells using lentiviral mediated gene transduction as described in the preceding sections."}
{"molecule": "G-CSF: cytokine, G-CSF (filgrastim, Amgen) (protein, chains of the INN, looked up) MTPLGPASSLPQSFLLKCLEQVRKIQGDGAALQEKLCATYKLCHPEELVLLGHSLGIPWAPLSSCPSQALQLAGCLSQLHSGLFLYQGLLQALEGISPELGPTLDTLQLDVADFATTIWQQMEELGMAPALQPTQGAMPAFASAFQRRAGGVLVASHLQSFLEVSYRVLRHLAQP", "values": [{"measurement": "yield of leukapheresis product for generation of CAR-T cells", "value": "improve the yield"}]}
